In IntAct's records for PubMed 25265331:

B1: Replication restart protein DnaT (Escherichia coli (strain K12)), P0A8J2 (parent)
chain: MSSRVLTPDVVGIDALVHDHQTVLAKAEGGVVAVFANNAPAFYAVTPARLAELLALEEKLARPGSDVALDDQLYQEPQAAPVAVPMGKFAMYPDWQPDADFIRLAALWGVALREPVTTEELASFIAYWQAEGKVFHHVQWQQKLARSLQIGRASNGGLPKRDVNTVSEPDSQIPPGFRG
partner: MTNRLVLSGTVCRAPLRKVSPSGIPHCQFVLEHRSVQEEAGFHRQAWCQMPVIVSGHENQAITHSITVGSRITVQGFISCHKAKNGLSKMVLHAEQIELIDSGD

Variants of: B1
Details: with prib_ecoli priB

| effect of a mutation on the interaction | Variant |
| --- | --- |
| disrupting interaction | MSSRVLTPDVVGIDALVHDHQTVLAKAEGGVVAVFANNAPAFYAVTPARLAELLALEEKLARPGSDVALADQLYQEPQAAPVAVPMGKFAMYPDWQPDADFIRLAALWGVALREPVTTEELASFIAYWQAEGKVFHHVQWQQKLARSLQIGRASNGGLPKRDVNTVSEPDSQIPPGFRG [D70A] |
